# Source: US20230027592A1
# Target: Bovine serum albumin (bovine) (UniProt P02769)
row,Substance,BSA sequence coverage after digestion (nLC-MS/MS) (% BSA sequence coverage)
1,"GluC protease (Mass Spectrometry Grade, Promega V1651) (from UniProt P0C1U8) (enzyme)",93.1
2,"Trypsin/LysC protease mix (Mass Spectrometry Grade, Promega V5072) (pool or library)",91.3
